# Reference: patent US20150203577A1 (Chugai, published 2015)
# Positions count from the first letter of the chain named.
# T1: mouse FcγRII extracellular domain, C-terminal His tag (mouse, UniProt P08101 30-210)
# T1 construct: also called mFcγRII; mFcgRII
# T1 sequence: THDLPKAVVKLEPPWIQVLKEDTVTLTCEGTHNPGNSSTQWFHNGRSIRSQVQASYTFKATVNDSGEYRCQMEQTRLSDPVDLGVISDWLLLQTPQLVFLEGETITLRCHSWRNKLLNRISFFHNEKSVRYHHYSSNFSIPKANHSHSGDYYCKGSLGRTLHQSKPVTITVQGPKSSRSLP
# T2: mouse FcγRIII extracellular domain, C-terminal His tag (mouse, UniProt P08508 31-215)
# T2 construct: also called mFcγRIII; mFcgRIII
# T2 chain: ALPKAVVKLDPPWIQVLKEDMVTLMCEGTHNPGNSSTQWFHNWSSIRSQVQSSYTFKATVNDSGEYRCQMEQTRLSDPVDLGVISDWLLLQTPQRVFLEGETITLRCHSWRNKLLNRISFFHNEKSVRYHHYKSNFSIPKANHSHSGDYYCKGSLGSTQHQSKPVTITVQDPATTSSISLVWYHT
# B1: H237-MB791/MRAL-k0 (antibody, mouse IgG1, kappa)
# heavy: QVQLQESGPGLVKPSETLSLTCAVSGHSISHDHAWSWVRQPPGEGLEWIGFISYSGITNYNPSLQGRVTISRDNSKNTLYLQMNSLRAEDTAVYYCARSLARTTAMDYWGEGTLVTVSSAKTTPPSVYPLAPGSAAQTNSMVTLGCLVKGYFPEPVTVTWNSGSLSSGVHTFPAVLQSDLYTLSSSVTVPSSTWPSETVTCNVAHPASSTKVDKKIVPRDCGCKPCICEPNEVELVFIFPPKPKDVLTITLTPKVTCVVVDISKDDPEVQFSWFVDDVEVHTAQTQPREELFNSTFRSVSELPIMHQDWLNGKEFKCRVDSDAFPAPIERTISKTKGRPKAPQVYTIPPPKEQMAKDKVSLTCMITDFFPEDITVEWQWNGQPAENYKNTQPIMDTDGSYFVYSKLNVQKSNWEAGNTFTCSVLHEGLHNHHTEKSLSHSPGK
# light: not shown
# notes: copies: 2 + 2
# B2: H237-MB833/MRAL-k0 (antibody, mouse IgG1, kappa)
# heavy: B1 heavy with L291Q, D320N, D322A, P327Y
# light: not shown
# notes: copies: 2 + 2
# B3: H237-MB831/MRAL-k0 (antibody, mouse IgG1, kappa)
# heavy: B1 heavy with L291Q, D320N, D322A, P327F
# light: not shown
# notes: copies: 2 + 2
# B4: H237-MB821/MRAL-k0 (antibody, mouse IgG1, kappa)
# heavy: B1 heavy with L291Q, D320M, D322A
# light: not shown
# notes: copies: 2 + 2
# B5: H237-MB835/MRAL-k0 (antibody, mouse IgG1, kappa)
# heavy: B1 heavy with K264D, L291Q, D320N, D322A, R330K
# light: not shown
# notes: copies: 2 + 2
# B6: H237-MB849/MRAL-k0 (antibody, mouse IgG1, kappa)
# heavy: B1 heavy with L291Q, D320N, A323G, P327Y, R330K
# light: not shown
# notes: copies: 2 + 2
# B7: H237-MB818/MRAL-k0 (antibody, mouse IgG1, kappa)
# heavy: B1 heavy with L291Q, D320M, D322A, P327F, R330K
# light: not shown
# notes: copies: 2 + 2
# B8: H237-MB823/MRAL-k0 (antibody, mouse IgG1, kappa)
# heavy: B1 heavy with L291Q, D320N, P327F, R330K
# light: not shown
# notes: copies: 2 + 2
# B9: H237-MB817/MRAL-k0 (antibody, mouse IgG1, kappa)
# heavy: B1 heavy with L291Q, D320M, D322A, A323G, R330K
# light: not shown
# notes: copies: 2 + 2
# B10: H237-MB829/MRAL-k0 (antibody, mouse IgG1, kappa)
# heavy: B1 heavy with L291Q, D320N, D322A, A323G
# light: not shown
# notes: copies: 2 + 2
# B11: H237-MB822/MRAL-k0 (antibody, mouse IgG1, kappa)
# heavy: B1 heavy with L291Q, D320N, A323G, R330K
# light: not shown
# notes: copies: 2 + 2
# B12: H237-MB847/MRAL-k0 (antibody, mouse IgG1, kappa)
# heavy: B1 heavy with D320N, A323G, R330K
# light: not shown
# notes: copies: 2 + 2
# B13: H237-MB826/MRAL-k0 (antibody, mouse IgG1, kappa)
# heavy: B1 heavy with L291Q, D320N, D322A, A323G, P327F, R330K
# light: not shown
# notes: copies: 2 + 2
# B14: H237-MB850/MRAL-k0 (antibody, mouse IgG1, kappa)
# heavy: B1 heavy with L291Q, D320N, A323G, E329Y, R330K
# light: not shown
# notes: copies: 2 + 2
# B15: H237-MB846/MRAL-k0 (antibody, mouse IgG1, kappa)
# heavy: B1 heavy with K264D, L291Q, D320N, A323G, R330K
# light: not shown
# notes: copies: 2 + 2
# B16: H237-MB814/MRAL-k0 (antibody, mouse IgG1, kappa)
# heavy: B1 heavy with L291Q, D322A, P327Y, R330K
# light: not shown
# notes: copies: 2 + 2
# B17: H237-MB810/MRAL-k0 (antibody, mouse IgG1, kappa)
# heavy: B1 heavy with D320N, D322A, P327Y, R330K
# light: not shown
# notes: copies: 2 + 2
# B18: H237-MB812/MRAL-k0 (antibody, mouse IgG1, kappa)
# heavy: B1 heavy with L291Q, D322A, A323G, R330K
# light: not shown
# notes: copies: 2 + 2
# B19: H237-MB816/MRAL-k0 (antibody, mouse IgG1, kappa)
# heavy: B1 heavy with L291Q, D320M, R330K
# light: not shown
# notes: copies: 2 + 2
# B20: H237-MB809/MRAL-k0 (antibody, mouse IgG1, kappa)
# heavy: B1 heavy with D320N, D322A, P327F, R330K
# light: not shown
# notes: copies: 2 + 2
# B21: H237-MB827/MRAL-k0 (antibody, mouse IgG1, kappa)
# heavy: B1 heavy with L291Q, D320N, D322A, A323G, P327Y, R330K
# light: not shown
# notes: copies: 2 + 2
# B22: H237-MB815/MRAL-k0 (antibody, mouse IgG1, kappa)
# heavy: B1 heavy with L291Q, D322A, E329Y, R330K
# light: not shown
# notes: copies: 2 + 2
# B23: H237-MB825/MRAL-k0 (antibody, mouse IgG1, kappa)
# heavy: B1 heavy with L291Q, D320N, E329Y, R330K
# light: not shown
# notes: copies: 2 + 2
# B24: H237-MB820/MRAL-k0 (antibody, mouse IgG1, kappa)
# heavy: B1 heavy with L291Q, D320M, D322A, E329Y, R330K
# light: not shown
# notes: copies: 2 + 2
# B25: H237-MB834/MRAL-k0 (antibody, mouse IgG1, kappa)
# heavy: B1 heavy with L291Q, D320N, D322A, E329Y
# light: not shown
# notes: copies: 2 + 2
# B26: H237-MB807/MRAL-k0 (antibody, mouse IgG1, kappa)
# heavy: B1 heavy with D320M, D322A, R330K
# light: not shown
# notes: copies: 2 + 2
# B27: H237-MB813/MRAL-k0 (antibody, mouse IgG1, kappa)
# heavy: B1 heavy with L291Q, D322A, P327F, R330K
# light: not shown
# notes: copies: 2 + 2
# B28: H237-MB824/MRAL-k0 (antibody, mouse IgG1, kappa)
# heavy: B1 heavy with L291Q, D320N, P327Y, R330K
# light: not shown
# notes: copies: 2 + 2
# B29: H237-MB819/MRAL-k0 (antibody, mouse IgG1, kappa)
# heavy: B1 heavy with L291Q, D320M, D322A, P327Y, R330K
# light: not shown
# notes: copies: 2 + 2
# B30: H237-MB811/MRAL-k0 (antibody, mouse IgG1, kappa)
# heavy: B1 heavy with D320N, D322A, E329Y, R330K
# light: not shown
# notes: copies: 2 + 2
# B31: H237-MB828/MRAL-k0 (antibody, mouse IgG1, kappa)
# heavy: B1 heavy with L291Q, D320N, D322A, A323G, E329Y, R330K
# light: not shown
# notes: copies: 2 + 2
# B32: H237-MB848/MRAL-k0 (antibody, mouse IgG1, kappa)
# heavy: B1 heavy with L291Q, A323G, R330K
# light: not shown
# notes: copies: 2 + 2
# B33: H237-MB808/MRAL-k0 (antibody, mouse IgG1, kappa)
# heavy: B1 heavy with D320N, D322A, A323G, R330K
# light: not shown
# notes: copies: 2 + 2
# Target: T1, mouse FcγRII extracellular domain, …
# Assay: SPR (Biacore T200), antibody captured on Protein L, mFcγR analyte
Binder,Kd,relative mFcγRII-binding activity (mIgG1 = 1)
B1,5.23 nM,40.1 fold vs H237-mIgG1/MRAL-k0
B2,8.31 nM,25.3 fold vs H237-mIgG1/MRAL-k0
B3,9.4 nM,22.3 fold vs H237-mIgG1/MRAL-k0
B4,8.6 nM,24.4 fold vs H237-mIgG1/MRAL-k0
B5,8 nM,26.3 fold vs H237-mIgG1/MRAL-k0
B6,6.68 nM,31.4 fold vs H237-mIgG1/MRAL-k0
B7,13.5 nM,15.6 fold vs H237-mIgG1/MRAL-k0
B8,8.39 nM,25 fold vs H237-mIgG1/MRAL-k0
B9,7.38 nM,28.5 fold vs H237-mIgG1/MRAL-k0
B10,6.22 nM,33.8 fold vs H237-mIgG1/MRAL-k0
B11,4.8 nM,43.8 fold vs H237-mIgG1/MRAL-k0
B12,4.81 nM,43.7 fold vs H237-mIgG1/MRAL-k0
B13,11.4 nM,18.5 fold vs H237-mIgG1/MRAL-k0
B14,4.81 nM,43.7 fold vs H237-mIgG1/MRAL-k0
B15,2.91 nM,72.1 fold vs H237-mIgG1/MRAL-k0
B16,11.7 nM,18 fold vs H237-mIgG1/MRAL-k0
B17,10.1 nM,20.8 fold vs H237-mIgG1/MRAL-k0

Binder,Kd,relative mFcγRII-binding activity (mIgG1 = 1)
B18,6.28 nM,33.4 fold vs H237-mIgG1/MRAL-k0
B19,6.9 nM,30.4 fold vs H237-mIgG1/MRAL-k0
B20,11.1 nM,19 fold vs H237-mIgG1/MRAL-k0
B21,9.77 nM,21.5 fold vs H237-mIgG1/MRAL-k0
B22,12 nM,17.6 fold vs H237-mIgG1/MRAL-k0
B23,7.38 nM,28.4 fold vs H237-mIgG1/MRAL-k0
B24,10.8 nM,19.5 fold vs H237-mIgG1/MRAL-k0
B25,12.4 nM,17 fold vs H237-mIgG1/MRAL-k0
B26,9.58 nM,21.9 fold vs H237-mIgG1/MRAL-k0
B27,12.9 nM,16.3 fold vs H237-mIgG1/MRAL-k0
B28,7.51 nM,28 fold vs H237-mIgG1/MRAL-k0
B29,11.6 nM,18.1 fold vs H237-mIgG1/MRAL-k0
B30,9.45 nM,22.2 fold vs H237-mIgG1/MRAL-k0
B31,7.4 nM,28.4 fold vs H237-mIgG1/MRAL-k0
B32,4.58 nM,45.8 fold vs H237-mIgG1/MRAL-k0
B33,7.19 nM,29.2 fold vs H237-mIgG1/MRAL-k0

# Target: T2, mouse FcγRIII extracellular domain, …
# Assay: as above
Binder,Kd,relative mFcγRIII-binding activity (mIgG1 = 1)
B1,256 nM,1.1 fold vs H237-mIgG1/MRAL-k0
B2,630 nM,0.4 fold vs H237-mIgG1/MRAL-k0
B3,716 nM,0.4 fold vs H237-mIgG1/MRAL-k0
B4,625 nM,0.5 fold vs H237-mIgG1/MRAL-k0
B5,401 nM,0.7 fold vs H237-mIgG1/MRAL-k0
B6,436 nM,0.6 fold vs H237-mIgG1/MRAL-k0
B7,979 nM,0.3 fold vs H237-mIgG1/MRAL-k0
B8,575 nM,0.5 fold vs H237-mIgG1/MRAL-k0
B9,539 nM,0.5 fold vs H237-mIgG1/MRAL-k0
B10,445 nM,0.6 fold vs H237-mIgG1/MRAL-k0
B11,304 nM,0.9 fold vs H237-mIgG1/MRAL-k0
B12,213 nM,1.3 fold vs H237-mIgG1/MRAL-k0
B13,829 nM,0.3 fold vs H237-mIgG1/MRAL-k0
B14,358 nM,0.8 fold vs H237-mIgG1/MRAL-k0
B15,133 nM,2.1 fold vs H237-mIgG1/MRAL-k0
B16,826 nM,0.3 fold vs H237-mIgG1/MRAL-k0
B17,546 nM,0.5 fold vs H237-mIgG1/MRAL-k0

Binder,Kd,relative mFcγRIII-binding activity (mIgG1 = 1)
B18,418 nM,0.7 fold vs H237-mIgG1/MRAL-k0
B19,431 nM,0.7 fold vs H237-mIgG1/MRAL-k0
B20,638 nM,0.4 fold vs H237-mIgG1/MRAL-k0
B21,744 nM,0.4 fold vs H237-mIgG1/MRAL-k0
B22,938 nM,0.3 fold vs H237-mIgG1/MRAL-k0
B23,564 nM,0.5 fold vs H237-mIgG1/MRAL-k0
B24,854 nM,0.3 fold vs H237-mIgG1/MRAL-k0
B25,976 nM,0.3 fold vs H237-mIgG1/MRAL-k0
B26,579 nM,0.5 fold vs H237-mIgG1/MRAL-k0
B27,951 nM,0.3 fold vs H237-mIgG1/MRAL-k0
B28,500 nM,0.6 fold vs H237-mIgG1/MRAL-k0
B29,872 nM,0.3 fold vs H237-mIgG1/MRAL-k0
B30,654 nM,0.4 fold vs H237-mIgG1/MRAL-k0
B31,571 nM,0.5 fold vs H237-mIgG1/MRAL-k0
B32,308 nM,0.9 fold vs H237-mIgG1/MRAL-k0
B33,359 nM,0.8 fold vs H237-mIgG1/MRAL-k0
